Data reported in US20160166638A1, “LACTOFERRIN-OSTEOPONTIN-IRON COMPLEX” (NESTEC S.A., priority 2013, published 2016).

Assay: Colour change of iron fortified strawberry-banana yoghurt after flash pasteurization (CIELAB colorimetry)
Assay type: physicochemical
Settings: colour difference vs yoghurt with no iron salts; Jogolino Strawberry/Banana yoghurt, approx. 0.8 mg iron per 100 g; flash pasteurized at 105° C. for 2 minutes
Method: Commercial yoghurt, Nestlé Jogolino™ Strawberry/Banana yoghurt containing 15% banana puree and 10% strawberry puree, was iron fortified by the addition of different iron containing materials to 5 kg yoghurt as reported in the table below. The amounts were chosen to provide approximately 0.8 mg iron per 100 g yoghurt. A 100 g serving of yoghurt with that level of iron would provide 15% of the recommended daily amount of iron for an infant [Official Journal of the European Union, Commission Directive 2006/125/EC].
For the lactoferrin-osteopontin-iron complex (Trial B), the powder from Example 1 was added to yoghurt at a level of 28 g per 5 kg yoghurt. The resulting yoghurt composition comprised 5.6 g powder per kg which is 4 g LF-OPN-Fe complex per kg.
The yoghurts were flash pasteurized at 105° C. for 2 minutes. Colour measurements were performed in 1×1 cm polystyrene cuvettes using an X-Rite ColorEye 7000A colorimeter. The colorimeter was set up with a D65 light source, 10 degree observer angle and with specular component included. The colour difference between the yoghurt with no iron salts and the iron fortified yoghurt was measured for each iron salt and expressed as ΔEab* using the CIELAB colour scale.

B1: Lactoferrin-Fe: Lactoferrin obtained from Armor proteins, supplied with some iron complexed to it; comparison fortificant (protein, UniProt P24627 20-708, looked up)
Lactotransferrin: APRKNVRWCTISQPEWFKCRRWQWRMKKLGAPSITCVRRAFALECIRAIAEKKADAVTLDGGMVFEAGRDPYKLRPVAAEIYGTKESPQTHYYAVAVVKKGSNFQLDQLQGRKSCHTGLGRSAGWIIPMGILRPYLSWTESLEPLQGAVAKFFSASCVPCIDRQAYPNLCQLCKGEGENQCACSSREPYFGYSGAFKCLQDGAGDVAFVKETTVFENLPEKADRDQYELLCLNNSRAPVDAFKECHLAQVPSHAVVARSVDGKEDLIWKLLSKAQEKFGKNKSRSFQLFGSPPGQRDLLFKDSALGFLRIPSKVDSALYLGSRYLTTLKNLRETAEEVKARYTRVVWCAVGPEEQKKCQQWSQQSGQNVTCATASTTDDCIVLVLKGEADALNLDGGYIYTAGKCGLVPVLAENRKSSKHSSLDCVLRPTEGYLAVAVVKKANEGLTWNSLKDKKSCHTAVDRTAGWNIPMGLIVNQTGSCAFDEFFSQSCAPGADPKSRLCALCAGDDQGLDKCVPNSKEKYYGYTGAFRCLAEDVGDVAFVKNDTVWENTNGESTADWAKNLNREDFRLLCLDGTRKPVTEAQSCHLAVAPNHAVVSRSDRAAHVKQVLLHQQALFGKNGKNCPDKFCLFKSETKNLLFNDNTECLAKLGGRPTYEEYLGTEYVTAIANLKKCSTSPLLEACAFLTR
modifications: iron complex
notes: Lactoferrin obtained from Armor proteins, supplied with some iron complexed to it; comparison fortificant
  ΔEab*: 5.64
